In patent US20250281556A1, “PRODUCTION OF RNA POLYNUCLEOTIDES ENCODING PICORNAVIRUS” (priority 2022, published 2025):

Legend:
[1] = system: ~260 nt segment of the 5′-end of the viral genome sequence (virus start); experiment: Ribozyme cleavage efficiency, test construct with longer ~260 nt virus start; assay type: biochemical, CVA21; conditions: gel electrophoresis
Method: (§1) Experiments were performed to optimize the ribozyme sequence at the 5′ junctional cleavage sequence region of the in vitro transcription template for CVA21 viral genome based on the test construct design according to FIG. 10B. Initially, a short, about 60 nt segment(S) of the 5′-end of the viral genome (“virus start”) was used to identify ribozymes that yielded high cleavage efficiency. […] Specifically, for an initial candidate ribozyme that yielded >90% cleavage efficiency in the test construct with short ˜60 nt virus start, it yielded only about 10-35% cleavage efficiency upon incorporation of the expression construct for the full-length viral genome. […] Thus, the test construct was redesigned to include a longer, about 260 nt segment (L) of the 5′-end of the viral genome sequence. […] Therefore, the test construct “L” with longer virus start better recapitulates the cleavage efficiency of the candidate ribozyme when incorporated into the full-length viral genome.
Further optimization was performed in the DNA template encoding ENT27 ribozyme, including: • Replacing the P2 motif “TTGGTT” of ENT27-WT with “TTTGTT” (ENT27-V1) or “TTTATT” (ENT27-V2, ENT27-V3, ENT27-V4) to complement the 5′ end of the viral start “UUAAA” after ribozyme cleavage. • Inserting additional nucleotides “GAAA” (ENT27-V3) or “ACGAGAAATCGT” (ENT27-V4) into the P3 stem insert of the ENT27 ribozyme. These optimizations are illustrated in FIG. 11A and FIG. 11B.
The cleavage efficiencies of these optimized ENT27 ribyzomes were analyzed using the test constructs with longer ˜260 nt virus start. The leader sequence used in these constructs include L1 (SEQ ID NO: 135) and L2 (SEQ ID NO: 136).

[2] = system: full-length CVA21 viral genome RNA; experiment: Ribozyme cleavage efficiency in the full-length CVA21 viral genome expression construct; assay type: biochemical; conditions: L1 leader sequence, RT-dPCR and RNA digest methods, vs control vector CVA21v1
Method: as §1
ENV27-V2 ribozyme and L1 leader sequence was then incorporated into the CVA21 viral genome expression construct and tested for cleavage efficiency using both RT-dPCR and RNA digest methods.

B1: ENV27-V3: ENV27 ribozyme variant, DNA SEQ ID NO: 133, TTTATT and GAAA inserted into P3 stem insert (nucleic acid)
DNA: ACTCGTTTGAGCGAGTATAAACAGTTTATTAGGCTCAAAGCGGAGAGCAGAGAAATCTGCTCTCG
modifications: expressed or natural sequence
[1]
  cleavage efficiency: improved the cleavage efficiency

B2: ENV27-V4: ENV27 ribozyme variant, DNA SEQ ID NO: 134, TTTATT and ACGAGAAATCGT inserted into P3 stem insert (nucleic acid)
DNA: ACTCGTTTGAGCGAGTATAAACAGTTTATTAGGCTCAAAGCGGAGAGCAGAACGAGAAATCGTTCTGCTCTCG
modifications: expressed or natural sequence
[1]
  cleavage efficiency: improved the cleavage efficiency

B3: ENV27-V2: ENV27 ribozyme variant, DNA SEQ ID NO: 132, P2 motif TTTATT; tested with L1 leader sequence (nucleic acid)
DNA: ACTCGTTTGAGCGAGTATAAACAGTTTATTAGGCTCAAAGCGGAGAGCAGATCTGCTCTCG
modifications: expressed or natural sequence
[1]
  cleavage efficiency: much better cleavage efficiency
[2]
  cleavage efficiency: > 90%

B4: ENT27-WT: ENV27 ribozyme, corresponding DNA sequence SEQ ID NO: 130, P2 motif TTGGTT (nucleic acid)
DNA: ACTCGTTTGAGCGAGTATAAACAGTTGGTTAGGCTCAAAGCGGAGAGCAGATCTGCTCTCGTCCAA
modifications: further chemistry not given here
[1]
  cleavage efficiency: promising candidate
